Residue numbers refer to the chain shown, from its start.
Assays:
[1] = molecular target: T1, ParB WT (RTAG) (Caulobacter crescentus, UniProt B8GW30 1-304); assay: BLI; BLI: 100 mM Tris-HCl pH 7.4, 150 mM NaCl, 1 mM EDTA, 0.005% Tween 20; temperature not stated; biotinylated DNA on streptavidin sensor, protein typically 0-1000; conditions: protein: recombinant; tags: C-terminal His6; chain copies: 2; label: 5' biotin on strand 1; blunt
T1 sequence: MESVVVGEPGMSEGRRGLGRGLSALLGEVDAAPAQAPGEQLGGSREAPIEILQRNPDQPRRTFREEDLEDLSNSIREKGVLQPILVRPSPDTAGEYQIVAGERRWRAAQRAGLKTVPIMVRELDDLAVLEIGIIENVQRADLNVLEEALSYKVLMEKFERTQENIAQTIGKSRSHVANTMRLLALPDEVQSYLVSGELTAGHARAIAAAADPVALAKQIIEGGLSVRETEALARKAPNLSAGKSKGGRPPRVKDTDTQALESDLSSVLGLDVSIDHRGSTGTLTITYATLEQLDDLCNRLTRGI

[2] = molecular target: T2, ParB PtoN1 (QTAG) (Caulobacter crescentus, UniProt B8GW30 1-304, R173Q); assay: BLI; 1000 nM dimer; BLI: 100 mM Tris-HCl pH 7.4, 150 mM NaCl, 1 mM EDTA, 0.005% Tween 20; temperature not stated; biotinylated DNA on streptavidin sensor, protein typically 0-1000; conditions: protein: recombinant; tags: C-terminal His6; chain copies: 2; label: 5' biotin on strand 1; blunt
T2 sequence: T1 sequence with R173Q

[3] = molecular target: T3, ParB PtoN7 (QTAR) (Caulobacter crescentus, UniProt B8GW30 1-304, R173Q;G201R); assay: as above; conditions: protein: recombinant; tags: C-terminal His6; chain copies: 2; label: 5' biotin on strand 1; blunt
T3 sequence: T1 sequence with R173Q, G201R

[4] = molecular target: T4, ParB DBD (Caulobacter crescentus, UniProt B8GW30 126-243); assay: X-ray crystallography 2.4 A; BLI: 100 mM Tris-HCl pH 7.4, 150 mM NaCl, 1 mM EDTA, 0.005% Tween 20; temperature not stated; biotinylated DNA on streptavidin sensor, protein typically 0-1000; conditions: protein: recombinant; tags: C-terminal His6; chain copies: 2; blunt; palindrome, 2 strand copies
T4 sequence: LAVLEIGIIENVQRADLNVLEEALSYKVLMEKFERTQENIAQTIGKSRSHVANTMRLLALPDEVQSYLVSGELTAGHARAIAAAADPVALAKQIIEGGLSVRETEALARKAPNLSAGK

B1: parS BLI duplex (dsDNA)
DNA 1: GGGATGTTTCACGTGAAACA
DNA 2: TGTTTCACGTGAAACATCCC
In the case of B1, the Kd [1] is reported as 11 ± 7 nM, the binding result [2] is reported as “no binding” and the binding result [3] is reported as “no binding”.

B2: NBS BLI duplex (dsDNA)
DNA 1: GGGATATTTCCCGGGAAATA
DNA 2: TATTTCCCGGGAAATATCCC
B2: no binding [2]; no binding [3].

B3: site1 (dsDNA)
DNA 1: GGGATGTTTCTCGAGAAACA
DNA 2: TGTTTCTCGAGAAACATCCC
B3: no binding [2]; no binding [3].

B4: site2 (dsDNA)
DNA 1: GGGATGTTTCGCGCGAAACA
DNA 2: TGTTTCGCGCGAAACATCCC
B4: no binding [2]; no binding [3].

B5: site3 (dsDNA)
DNA 1: GGGATGTTTCCCGGGAAACA
DNA 2: TGTTTCCCGGGAAACATCCC
B5: no binding [2]; no binding [3].

B6: site4 (dsDNA)
DNA 1: GGGATCTTTCACGTGAAAGA
DNA 2: TCTTTCACGTGAAAGATCCC
B6: no binding [2]; no binding [3].

B7: site5 (dsDNA)
DNA 1: GGGATCTTTCTCGAGAAAGA
DNA 2: TCTTTCTCGAGAAAGATCCC
B7: no binding [2]; no binding [3].

B8: site6 (dsDNA)
DNA 1: GGGATCTTTCGCGCGAAAGA
DNA 2: TCTTTCGCGCGAAAGATCCC
B8: no binding [2]; no binding [3].

B9: site7 (dsDNA)
DNA 1: GGGATCTTTCCCGGGAAAGA
DNA 2: TCTTTCCCGGGAAAGATCCC
B9: no binding [2]; no binding [3].

B10: site8 (dsDNA)
DNA 1: GGGATTTTTCACGTGAAAAA
DNA 2: TTTTTCACGTGAAAAATCCC
B10: no binding [2]; no binding [3].

B11: site9 (dsDNA)
DNA 1: GGGATTTTTCTCGAGAAAAA
DNA 2: TTTTTCTCGAGAAAAATCCC
B11: no binding [2]; no binding [3].

B12: site10 (dsDNA)
DNA 1: GGGATTTTTCGCGCGAAAAA
DNA 2: TTTTTCGCGCGAAAAATCCC
B12: no binding [2]; no binding [3].

B13: site11 (dsDNA)
DNA 1: GGGATTTTTCCCGGGAAAAA
DNA 2: TTTTTCCCGGGAAAAATCCC
B13: no binding [2]; no binding [3].

B14: site12 (dsDNA)
DNA 1: GGGATATTTCACGTGAAATA
DNA 2: TATTTCACGTGAAATATCCC
B14: no binding [2]; no binding [3].

B15: site13 (dsDNA)
DNA 1: GGGATATTTCTCGAGAAATA
DNA 2: TATTTCTCGAGAAATATCCC
B15: no binding [2]; no binding [3].

B16: site14 (dsDNA)
DNA 1: GGGATATTTCGCGCGAAATA
DNA 2: TATTTCGCGCGAAATATCCC
B16: no binding [2]; no binding [3].

B17: parS 20-bp crystal duplex (dsDNA)
DNA 1: GATGTTTCACGTGAAACATC
DNA 2: GATGTTTCACGTGAAACATC
B17: binds [4].

From publication PMC7383237, “Diversification of DNA-Binding Specificity by Permissive and Specificity-Switching Mutations in the ParB/Noc Protein Family”
